T1: full length APMA activated MMP-2 (human) (human, UniProt P08253 110-660)
T1 construct: mature; Active enzyme lacking the pro domain; also called full length MMP2 purified from Hila cells; active MMP-2
T1 sequence (looked up): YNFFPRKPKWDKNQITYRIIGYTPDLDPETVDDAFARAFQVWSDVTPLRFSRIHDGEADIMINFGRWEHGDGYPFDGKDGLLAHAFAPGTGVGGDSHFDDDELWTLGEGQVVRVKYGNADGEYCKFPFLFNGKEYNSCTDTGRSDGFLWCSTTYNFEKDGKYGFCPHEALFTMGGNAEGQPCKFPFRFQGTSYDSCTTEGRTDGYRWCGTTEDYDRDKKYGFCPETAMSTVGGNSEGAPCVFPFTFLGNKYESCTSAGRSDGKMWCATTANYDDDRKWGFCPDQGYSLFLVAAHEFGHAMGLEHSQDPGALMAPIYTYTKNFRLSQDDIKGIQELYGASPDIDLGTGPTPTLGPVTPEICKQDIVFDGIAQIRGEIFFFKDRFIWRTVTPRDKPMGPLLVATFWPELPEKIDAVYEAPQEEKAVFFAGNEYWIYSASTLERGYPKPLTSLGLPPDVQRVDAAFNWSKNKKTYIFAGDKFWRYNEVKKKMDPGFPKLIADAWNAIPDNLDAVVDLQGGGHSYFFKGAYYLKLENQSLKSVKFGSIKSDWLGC


How the values were obtained:
[1] = molecular target: T2, MT1-MMP (MMP-14) catalytic domain (UniProt P50281 112-284, limits assumed); experiment: cell-based or functional assay
[2] = molecular target: TNF-alpha-converting enzyme (TACE, ADAM-17) (UniProt P78536 215-671, limits assumed); experiment: cell-based or functional assay
Sequence of TNF-alpha-converting enzyme (TACE, ADAM-17) (P78536 215-671 limits assumed): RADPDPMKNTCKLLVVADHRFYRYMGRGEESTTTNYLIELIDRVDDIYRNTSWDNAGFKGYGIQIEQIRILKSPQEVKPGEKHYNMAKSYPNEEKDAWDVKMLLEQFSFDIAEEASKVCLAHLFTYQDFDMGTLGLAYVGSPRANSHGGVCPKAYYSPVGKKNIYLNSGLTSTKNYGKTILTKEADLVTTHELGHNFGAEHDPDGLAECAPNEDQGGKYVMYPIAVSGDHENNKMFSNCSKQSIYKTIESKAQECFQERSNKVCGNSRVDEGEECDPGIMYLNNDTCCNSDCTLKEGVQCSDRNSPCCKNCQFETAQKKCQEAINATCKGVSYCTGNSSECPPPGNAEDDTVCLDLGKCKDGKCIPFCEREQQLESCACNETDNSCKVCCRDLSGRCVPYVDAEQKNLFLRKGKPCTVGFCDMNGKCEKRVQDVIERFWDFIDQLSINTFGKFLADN

[3] = molecular target: T2, MT1-MMP (MMP-14) catalytic domain; experiment: in-vitro fluorescence enzymatic activity assay with peptide substrate
[4] = molecular target: T3, MMP-9 catalytic domain (recombinant catalytic fragment without the hemopexin and pro domain, APMA activated) (human, UniProt P14780 20-707); experiment: inhibition of fluorogenic peptide cleavage, fit assuming competitive inhibition; MMP-9 catalytic domain (FIG. 5)
T3 construct: domain: catalytic fragment (without the hemopexin and pro domain); also called MMP-9 recombinant catalytic fragment; MMP9 catalytic fragment
T3 sequence (P14780 20-707): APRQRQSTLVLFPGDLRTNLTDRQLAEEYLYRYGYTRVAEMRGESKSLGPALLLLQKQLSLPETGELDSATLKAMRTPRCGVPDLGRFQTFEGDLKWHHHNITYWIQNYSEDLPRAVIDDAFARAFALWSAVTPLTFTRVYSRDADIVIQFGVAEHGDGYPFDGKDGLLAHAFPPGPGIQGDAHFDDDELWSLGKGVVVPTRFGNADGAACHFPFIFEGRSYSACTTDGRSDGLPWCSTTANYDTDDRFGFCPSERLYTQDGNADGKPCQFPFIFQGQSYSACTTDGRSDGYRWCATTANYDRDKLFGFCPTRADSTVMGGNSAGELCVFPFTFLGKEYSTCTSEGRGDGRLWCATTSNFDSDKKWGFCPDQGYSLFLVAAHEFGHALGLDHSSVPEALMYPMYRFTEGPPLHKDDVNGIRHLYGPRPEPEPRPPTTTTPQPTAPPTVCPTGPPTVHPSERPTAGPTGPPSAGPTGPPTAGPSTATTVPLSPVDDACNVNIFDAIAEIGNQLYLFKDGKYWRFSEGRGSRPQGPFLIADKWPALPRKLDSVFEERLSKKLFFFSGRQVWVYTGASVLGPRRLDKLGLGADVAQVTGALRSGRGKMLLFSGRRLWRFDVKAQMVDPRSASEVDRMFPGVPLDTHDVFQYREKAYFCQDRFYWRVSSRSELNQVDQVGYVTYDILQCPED

[5] = molecular target: T2, MT1-MMP (MMP-14) catalytic domain; experiment: inhibition of fluorogenic peptide cleavage, fit to competitive inhibition; catalytic domain of MT1-MMP (FIG. 12B)
[6] = molecular target: T1, full length APMA activated MMP-2 (human); experiment: inhibition of fluorogenic peptide cleavage, fit assuming competitive inhibition; full length APMA activated MMP-2 (FIG. 5)
[7] = molecular target: T3, MMP-9 catalytic domain (recombinant …); experiment: inhibition of fluorogenic peptide cleavage, fit to competitive inhibition; MMP-9 recombinant catalytic fragment (FIG. 12A)
[8] = molecular target: T1, full length APMA activated MMP-2 (human); experiment: inhibition of fluorogenic peptide cleavage, fit to competitive inhibition; full length MMP2 purified from HeLa cells (FIG. 12B)
[9] = molecular target: MMP-2 (active; construct not stated at that place) (Mus musculus (Mouse), UniProt P33434 110-467, catalytic and structural zinc and calcium ions are bound; the letters cannot show them); experiment: cell-based or functional assay
[10] = molecular target: T4, MMP-2 catalytic domain (MMP-2cat), amino acids 110-467 of GenBank NP-032636.1 (UniProt P33434 110-467); experiment: enzyme kinetics with fluorogenic peptide substrate, Lineweaver-Burk plot, competitive inhibition; MMP-2cat (FIG. 4A)
T4 construct: range 110-467; also called MMP2 catalytic fragment; recombinant MMP-2 catalytic domain

[11] = molecular target: T5, full length APMA activated MMP-9 (human) (human, UniProt P14780 107-707); experiment: enzyme kinetics with fluorogenic peptide substrate, Lineweaver-Burk plot, competitive inhibition; full length APMA activated MMP-9 (FIG. 4B)
T5 construct: mature; Active enzyme lacking the pro domain; also called active MMP-9 (full length)
T5 sequence (P14780 107-707): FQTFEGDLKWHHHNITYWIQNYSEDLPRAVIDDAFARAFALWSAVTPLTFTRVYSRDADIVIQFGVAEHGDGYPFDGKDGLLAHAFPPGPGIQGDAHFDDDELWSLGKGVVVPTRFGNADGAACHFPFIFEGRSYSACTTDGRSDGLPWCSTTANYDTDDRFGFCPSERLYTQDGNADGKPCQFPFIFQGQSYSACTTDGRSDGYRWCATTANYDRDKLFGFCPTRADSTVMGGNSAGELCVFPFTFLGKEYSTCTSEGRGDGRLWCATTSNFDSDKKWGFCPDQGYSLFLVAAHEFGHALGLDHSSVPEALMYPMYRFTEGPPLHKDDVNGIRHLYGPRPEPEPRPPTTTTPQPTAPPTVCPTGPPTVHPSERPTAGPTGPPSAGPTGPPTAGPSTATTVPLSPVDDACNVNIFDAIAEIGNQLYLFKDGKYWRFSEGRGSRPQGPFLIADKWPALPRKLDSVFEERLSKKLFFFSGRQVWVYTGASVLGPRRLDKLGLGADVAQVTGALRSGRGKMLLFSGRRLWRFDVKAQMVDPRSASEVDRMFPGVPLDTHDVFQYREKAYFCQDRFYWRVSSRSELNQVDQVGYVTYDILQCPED

Binder | IC50 µM, inhibition of fluorogenic peptide cleavage [1] | IC50 µM, inhibition of fluorogenic peptide cleavage [2] | Ki [3] | Ki [4] | Ki [5] | Ki [6] | Ki [7] | Ki [8] | IC50 µM, inhibition of fluorogenic peptide cleavage [9] | Ki [10] | Ki [11]
6C6 monoclonal antibody (anti Imisdp mAb) (antibody, V domains shown) VH: CGGGLVKPGGSLKLSCAASGFAFSTYDMETSWIRQTPEKRLEWVATISSGGSCYTYYPDSVKGRFTISKDNARNTLYLQMETSSLRSGDTALYYCTRFRYDGWYFDVWGQG VL: CMETTQTPLSLPVSLGDQASISCRSSQSIVHSNGNTFLEWYLQKPGQSPKLLIYKVSNCRFSGVPDRFSGSGSGTDFTLKISRVEAEDLGVYYCFQASHVPPTFGGG | 14.4 µM | > 30 µM | 10 µM | 5.8 µM | 14.4 µM | 3000 nM | 1000 nM | 1400 nM |  |  | 
13E11 monoclonal antibody (anti CoTCPP mAb) (antibody, V domains shown) VH: EGGGLVQPGGSRKLSCAASGFTFTSFGMHWVRQAPEKGLEWVAYISSGNEIIYYADTVKGRFTISRDNPKNTLFLQMTSLRSEDTAMYYCARNYYRYGFYVMDYWGQG VL: EIVVTQSPAILSASPGEKVTMTCRASSSVSYMHWYQQKPGSSPKPWIYATSNELASGVPARFSGSGSGTSYSLTISRVEAEDAATYYCQQWISNPLTFGAG | > 30 µM | > 30 µM |  |  |  |  |  |  | 24 µM | 24 µM | 13 µM

— patent publication US20100233188A1 (YEDA RESEARCH AND DEVELOPMENT, published 2010)
